The supplement of paper PMC9170038

System: MS2 coat protein
Assay: apparent KD of MS2 coat protein; designed switch direction (-1 OFF switch, 1 ON switch): 1; higher = weaker reporter binding
Outline: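 Each step of the titration lasted 0.8–1.5 h at the lowest concentration and 10–20 min at the highest. The protein, SNAP-549-labelled MS2 coat protein, went from 0.7 or 1.5 nM doubling to 3 µM over RNA switches transcribed on Illumina chips by stalled E. coli RNA polymerase. Normalised cluster fluorescence was curve-fitted, and the per-design median over clusters is given as apparent KD.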

[1] = Eterna round: R95, input ligand: FMN 200 uM
[2] = Eterna round: R95, input ligand: microRNA oligo, concentration not stated
[3] = Eterna round: R95, input ligand: none
[4] = input ligand: microRNA oligo, concentration not stated

Row | Sequence | apparent KD of MS2 coat protein [1] | apparent KD of MS2 coat protein [2] | apparent KD of MS2 coat protein [3] | apparent KD of MS2 coat protein (input ligand: FMN 200 uM) | apparent KD of MS2 coat protein [4] | apparent KD of MS2 coat protein (input ligand: none)
1 | CAGCGCUGUCGAGAGGAUAUGCAGUGAUGGACAUGAGGAUCACCCAUGUUAGCGAUAGCAUUACAGUAGAAGGCUCUACAGCUGC [Soteed - 14] (puzzle: Same State 2) | 13 nM | 16.4 nM | 19.5 nM |  |  | 
2 | UGUUGUAUUACAGGAUAUCUAUUGUUUUCAUUUAGAGAAGGGUAUUCACAUGAGGAUCACCCAUGUAUAUACGAGGAAGUUGUG [JMF's solution 78] (Eterna round: R96, puzzle: Same State NG 1) |  |  |  | 42.1 nM | 33.1 nM | 39.9 nM
3 | AGCAUACAUGAGGAUCACCCAUGUCAACGUAGUCGAGGAUAUGGGCAGCCGUGAGGCGAACCAGAAGGCGAAUUGA [Mat - Same State 1 - Mod of JL - D3] (puzzle: Same State 1) | 23.7 nM | 34.6 nM | 38.9 nM |  |  | 
4 | AAAAUGAGUAUAUGAAAACAAGCUUUUUAACAUGAGGAUCACCCAUGUACUCGUCUUAUAAGCAGUCGAAAGACUGC [hsa-mir-208a sensor: 77] (Eterna round: R96, puzzle: Sensor for hsa-mir-208a) |  |  |  | 94.8 nM | 17.2 nM | 96.6 nM
5 | UCUUGGUUUUUGCUCGUUUUUUGUGUUGAACAUGAGGAUCACCCAUGUAUUGUACAAUCCGGUUUGAUGAUGGUCCA [JMF 47] (puzzle: Sensor for hsa-mir-208a) | 81.7 nM | 58.3 nM | 92.3 nM |  |  | 
6 | GUGGUCAGACAUGAGGAUCACCCAUGUGGAAUAAAUAACGACUAGGAUAUAUAAUAUAGGAUAUAAUAGAAGGAGUGAUUGGUG (Eterna round: R96, puzzle: Same State NG 3) |  |  |  | 72.3 nM | 49.5 nM | 58.8 nM
7 | UUAUUCUAUAUAGGAUAUUGAUGUAAUUUAUUUCAAGAAGGAUAUACAUGAGGAUCACCCAUGUUGGAUAGGGUUAGUUUGUUU [JR_SSNG1_Sub080] (Eterna round: R96, puzzle: Same State NG 1) |  |  |  |  | 58.2 nM | 
8 | AGUCCAGCGAAAGCUGGACAAAAGCAUGUACAUGAGGAUCACCCAUGUUCAUGUGCAAGCUUUUUGCUCGUCUUAAA [JL mod - D95 - 4] (puzzle: Sensor for hsa-mir-208a) | 49.2 nM | 9.36 nM | 58.9 nM |  |  | 
9 | AUUAUUAAUGCAGGAUAUGAUUAACAUGAGGAUCACCCAUGUGGUGUUGUGAGUAAGGAGAGUGAUCAGAAGGGCAUUUUUUUA [JMF's solution 18] (Eterna round: R96, puzzle: Same State NG 2) |  |  |  | 653 nM | 440 nM | 479 nM
10 | UAUUUAAUCAUAGGAUAUAGUGUGUAAUUUGGACUAGAAGGAUGUAACAUGAGGAUCACCCAUGUGGUAAAUGGGAUACAUUCC [JR_SSNG1_Sub099] (Eterna round: R96, puzzle: Same State NG 1) |  |  |  |  | 91.9 nM | 
11 | AAAGGAUGAUGUUACAUGAGGAUCACCCAUGUAGUGAUAACUAAGGAUAUCUGUUAAACAAGUUAAGAGAAGGUAGGAUCAUUA [AK SSNG3-V2-8] (Eterna round: R96, puzzle: Same State NG 3) |  |  |  | 42.8 nM | 35.6 nM | 60.8 nM
12 | UUUGGGUGGCUGGAGGAUAUUCGAGUGGUUACAUGAGGAUCACCCAUGUGUCGCGCGGUACACGAGGAGAAGGCUGGCGGCCGUU (puzzle: Same State 2) |  | 37.7 nM |  |  |  | 
13 | GUUACAUGAGGAUCACCCAUGUAUGUGUGGGAGUAAGUGUCUUAGGAUAUCUAUUAUUUAAUUAAAGAGAAGGAAGAUUGUUGU [JMF's solution 25] (Eterna round: R96, puzzle: Same State NG 3) |  |  |  | 115 nM | 81.2 nM | 102 nM
14 | GCCGCGUUUCGCGCCUACAUGAGGAUCACCCAUGUAUGUGGGCAGGAUAUCGUUUGCUUUGCAAACGAGAAGGGCUGUUGUGGC [salish99_SSNG3_R04_010] (Eterna round: R96, puzzle: Same State NG 3) |  |  |  | 19.7 nM | 21.2 nM | 30 nM
15 | AACAAUCUAUCUGAGGAUAUCAUGAAAUAAACAUGAGGAUCACCCAUGUGCAGGAAAACUGCAUAUGAGAAGGCAGAUAGAUUUA [salish99_ss2_r3_057] (puzzle: Same State 2) | 43.8 nM | 638 nM | 1000 nM |  |  | 
16 | GCGAAAGCAGGAGGAUAUGCAGAGGAUCACCCUGUAGAAGGCCACAGAGGAGGAUAUGCAGAGGAUCACCCUGUAGAAGGCCAC [pwkr ssNG DX.17] (Eterna round: R96, puzzle: Same State NG 1) |  |  |  | 176 nM | 262 nM | 303 nM

Row | Sequence | apparent KD of MS2 coat protein [1] | apparent KD of MS2 coat protein [2] | apparent KD of MS2 coat protein [3] | apparent KD of MS2 coat protein (input ligand: FMN 200 uM) | apparent KD of MS2 coat protein [4] | apparent KD of MS2 coat protein (input ligand: none)
17 | UUUGGGUGGCUGGAGGAUAUCCUUGUGGUUACAUGAGGAUCACCCAUGUGCCGCGCGGUGCGCGAGGAGAAGGCUGGCGGCCGUU (puzzle: Same State 2) | 26 nM | 79.5 nM | 151 nM |  |  | 
18 | CCUGCGAUAAGCGAGCGAACAUGAGGAUCACCCAUGUGGCGGCAGGAUAUGGGUGACCCAGCGACUCAGAAGGGCCGAAGCUAA [Eternabot solution 8] (Eterna round: R96, puzzle: Same State NG 3) |  |  |  | 49.1 nM | 11.9 nM | 23.2 nM
19 | AUAAGUUUGAUGCUCGUCUCUCCGUACGGACAUGAGGAUCACCCAUGUAGUCGGGAAGUAGCCCGGCCAGUAUGGCC [Soveerre] (puzzle: Sensor for hsa-mir-208a) | 32.6 nM | 22.3 nM | 22.9 nM |  |  | 
20 | CAGCCACAAAAUACGGCUGAAACAUGAGGAUCACCCAUGUCACAGGAUAUCCAACGGUAUACCGCGGAGAAGGGUGCGAAGAAC [Ceusso] (Eterna round: R96, puzzle: Same State NG 3) |  |  |  | 73.7 nM | 73.8 nM | 52.4 nM
21 | UUAAUUAAUUAAUUAUACAUGAGGAUCACCCAUGUAAGUGAUCAGGAUAUCAGCUCGAAUAGAGCUGAGAAGGGAUACAUGUAA [SSNG3/13-A1] (Eterna round: R96, puzzle: Same State NG 3) |  |  |  |  | 148 nM | 
22 | UGAAUGGUGAUAGGAUAUACAUGAGGAAUCCUCGUAGAAGGAUCACGACAUGAGGAUCACCCAUGUAGCCGUCCGUAGACGGCU [salish99_SSNG1_r04_003] (Eterna round: R96, puzzle: Same State NG 1) |  |  |  | 192 nM | 75.9 nM | 255 nM
23 | CUCAAACAUGAGGAUCACCCAUGUGUUGUCAUGGGAGGAUAUCCCAGUUCGGUGACGUCGGGAGAAGGCCUAUGUC [× ×•×ª×• ×ž×“×™× ×” × ×—×ª-15] (puzzle: Same State 1) |  | 77.7 nM |  |  |  | 
24 | UAGUACAUGCUUUUUGUCCGUCUUAGAUAACAUGAGGAUCACCCAUGUAAGGUGAAAGUUAUAUAGUUUAGGAAGAU [JR_SHM208A_Sub056] (puzzle: Sensor for hsa-mir-208a) | 309 nM | 424 nM | 331 nM |  |  | 
25 | CGUAGGUAGCUGGAGGAUAUUCGAGUGGUAACAUGAGGAUCACCCAUGUGGUGAGAGGAACAUGAGGAGAAGGCUAGCUGCCUGC [JL-ss2-3.15 JL mod] (puzzle: Same State 2) | 118 nM | 96.2 nM | 76.9 nM |  |  | 
26 | GGAGCCGGCCUAGGAUAUUUCAUAAAAACACAUGAGGAUCACCCAUGUAGGCCAGAAGGCCUUGGGAAGAAGGAGGUCGGCUCC [Loop Effect - C29] (Eterna round: R96, puzzle: Same State NG 2) |  |  |  | 10.6 nM | 18.3 nM | 23.6 nM
27 | ACAUGAGGAUCACCCAUGUGAAAAGACCUAGAGGUGAAGCCGCAGGAUAUAUCACAAACGAGAAGAUAGAAGGGCGUACGCAUG [Eternabot solution 9] (Eterna round: R96, puzzle: Same State NG 3) |  |  |  | 89.7 nM | 60.5 nM | 72.1 nM
28 | GGUGCGAAUAAAGCCUACAUGAGGAUCACCCAUGUAUGUAGGCAGGAUAUCGUAUGCAAAGCAUACGAGAAGGGCUGUCGCACC [Mat - Same State NG 3 - JL Mod - D47] (Eterna round: R96, puzzle: Same State NG 3) |  |  |  | 30.1 nM | 56.9 nM | 85.8 nM
29 | UGAAUAGUGAUAGGAUAUACAUGAGGAAUCCUCGUAGAAGGAUCAUAACAUGAGGAUCACCCAUGUAGCCGUCCGUAGACGGCA [Mat - Same State NG 1 - JL mod - D56] (Eterna round: R96, puzzle: Same State NG 1) |  |  |  | 336 nM | 64 nM | 117 nM
30 | GUUACAUGAGGAUCACCCAUGUAUGUGUGGGAGUAAGUGUCUUAGGAUAUCUAUCAUUUGAUUUAAGAGAAGGAAGAUUGUUGU [JMF's solution 94] (Eterna round: R96, puzzle: Same State NG 3) |  |  |  | 116 nM | 96.1 nM | 115 nM
31 | GAGCCAGUCCGAGGAUAUUCAACAUGAGGAUCACCCAUGUAGGCUCAGAAAAGAAAAGAGCCUUGGGAGAAGGCGGACUGGCUC [Xeonanisa<<7] (Eterna round: R96, puzzle: Same State NG 2) |  |  |  | 9.61 nM | 9.01 nM | 14.1 nM
32 | AGUCCAGCCUGAGCUGGACUGAAGCAUGUACAUGAGGAUCACCCAUGUUCAUGUGCAAGCUUUUUGCUCGUCUUAUG [JL-shm-2.03 JL mod] (puzzle: Sensor for hsa-mir-208a) | 42 nM | 11.5 nM | 41.8 nM |  |  | 
